Data from PMC6355197.

Biological target: afTMEM16 scramblase from Aspergillus fumigatus (Aspergillus fumigatus)
Test: cryo-EM structure; afTMEM16 in MSP1E3 nanodiscs of 3 POPE:1 POPG; three samples: 0.5 mM Ca2+, Ca2+-free (5 mM EDTA), 0.5 mM Ca2+ with 5 mole% C24:0 ceramide; buffer D (150 mM KCl, 50 mM Tris pH 8.0); maps refined in C1 and C2

stoichiometry N: 2
Substance: afTMEM16 scramblase from Aspergillus fumigatus (natural protein)
